What was measured:
[1] = target: PaHigA (Pseudomonas aeruginosa PAO1) (UniProt Q9HVC1); assay: ITC; conditions: ITC: 20 mM Tris pH 8.0, 100 mM NaCl, 5% glycerol, 20 C, 400 uM DNA into 100 uM PaHigA; EMSA: DNA annealed in 10 mM NaCl, 20 mM Tris pH 8.0, 30 min at room …
[2] = target: the molecule itself; assay: SAXS; apo PaHigA in solution at 1, 3 and 5 mg/ml, 22°C; oligomeric state from the fit to the dimer's theoretical curve and from the calculated molecular mass
PaHigA = PaHigA (Pseudomonas aeruginosa PAO1, UniProt Q9HVC1 1-101); assay: crystal structure; 2.50 A; water-mediated contacts; ITC: 20 mM Tris pH 8.0, 100 mM NaCl, 5% glycerol, 20 C, 400 uM DNA into 100 uM PaHigA; EMSA: DNA annealed in 10 mM NaCl, 20 mM Tris pH 8.0, 30 min at room temperature, 5% native gel at 20 C; conditions: protein: recombinant; tags: C-terminal His6; chain copies: 4

For PhigBA 28-bp duplex, the Ka [1] was 7.5e+13 M^-2.

B1: PaHigA (Pseudomonas aeruginosa antitoxin HigA) (natural protein, Pseudomonas aeruginosa PAO1, UniProt Q9HVC1 1-101, looked up)
chain: MATNGMRPIHPGEILRDEFLMEFDISPAALARALKVSAPTVNDIVREQRGISADMAIRLGRYFDTSAQFWMNLQSEYSLATAYAANGKQIEHEIEPLLAHG
notes: Antitoxin HigA of P. aeruginosa PAO1, gene higA (PA4674), full length amplified from the PAO1 genome; Cloned NcoI/BamHI into pET28b with a C-terminal His tag; the construct comes from Guo et al., 2019; also called PaHigA-His; apo PaHigA; source: E. coli BL21(DE3) pLysS, purified (nickel-nitrilotriacetic acid resin, gel filtration on Superdex 200); not shown: His6, C-terminal, kept
B1 was tested, and the “stoichiometry N” value [2] was 2.

B2: PhigBA 18-bp duplex (dsDNA)
DNA 1: ACGCTTAACGTTAAGGGT
DNA 2: ACCCTTAACGTTAAGCGT
B2: binds (PaHigA).
